Source: the nanobody polyreactivity screen of Harvey et al. (2022)

assay: yeast display, Sf9 membrane polyspecificity reagent, FACS + sequencing; frameworks hold sequencing errors
Outline: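 Synthetic nanobody libraries on Saccharomyces cerevisiae BJ5465 were galactose-induced for 36–48 hours, stained 1 hour at 4 °C with 10% biotinylated, detergent-solubilized Sf9 membrane reagent and enriched on streptavidin microbeads. FACS then separated cells into low and high (top ~1%) gates by anti-HA (expression) and streptavidin (reagent binding) fluorescence. Genes were colony-PCR amplified, MiSeq 2 × 250 sequenced and CDR-length filtered. A clone's polyreactivity label is that of its gate of origin.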

Sequence	polyreactivity (PSR sort gate)
QVQLVESGGGLVQAGGSLRLSCAASGRIFTNYAMGWYRPAPGKEREYVAAISWSGGSTYYADSVKGRFTISRDNAKNTVYLQMNSLKPEYTAVYYCAAVGYAGLPYGLRPNNSGYWGQGTQVTVSS	low polyreactivity
QVQRVESGGGLVQAGGRLRLSCAASGRTFDNYAMGWYIQAPGKERELVSAISGGGGTNYADSVKGRFTISPDNAKNTVYLQMNSLKPEDTAVYYCAADTNGYEFDYWGQGTQVTVSS	low polyreactivity
QVQLVESGGCLVQAGGSLRLSCAASGSTLSYYAMGWYRQAPGKERELVAAINKSVTRTYYADSVKGRFTISRDNAKNTVYLQMNSLKPEDTAVYYCAASVPYYNGYYYNAYEYWGQGTQVTVSS	high polyreactivity
QVQLVESGGGLVQAGGSLRLSCAASGFIFWFNAIGWSRQEPGKEREWVATISWSDTSTYYADSVKGRFTISRDNAKNTVYLQMNSLKPEDTAVYYCATDGRETWLPEYYWGQGTQVTVSS	low polyreactivity
QVQLVESGGGLVQAGGCLRLSCAASGSIFAPIAMGWYRQAPGKERDLVAAITSGVGSTDYADSVKGRFTISRDNAKNNVYLQMNSLKPEDTAVYYCAADSSYLTYWEYDYWGQGTQVTVSS	low polyreactivity
QVQLVESGGGLVQAGGSLRLSCAASGRIFASYAMGWYRQAPGKERELVAAISAGGGSRTYYADSVKGRFTISRDNAKNTVYLQMNSLKPEDTAVYYCNTANSWQRQYYYWGQGTQVTVSS	high polyreactivity
QVQLVESGGGLVQAGGSLRLSCAASGSIFSSYAMGWYRQAPGKERELVAGISRRGGSTYYADSVKGRFTISRDNAKNTVYLLMNSLKPEDTAVYYCNARYAGSDLDYWGQGTQVTVSS	high polyreactivity
QVQLVESGGGLVQAGGSLRLSSAASGSIFGVNAMGVYRQAPGKERELVASITGGDSTNYADSVKGRFTISRDNAKNTVYFQMNSLKPEDTAVYYCAKDHYYRYCAAEFVTEYLYGFVYEYDSWGQGTQVTVSS	low polyreactivity
QVQLVESGRGLVLAGGSLRLSCAASGFIFLEYAMGWYRQAPGKERELVAASSSRGTRTYYADSVKGRFTISRDNAKNTGYLQMNSLKPEDTAVYYCAARSIAPTNLKTYLLDMDYWGQGTQVTVSS	high polyreactivity
QVQLVESGGGLVQAGGSLRLSCAASGSTFSVYGMGWYRQGPGKERELVAAISGYGSRRYYADSLKGRFTISRDNAKNTVYLQMNSLKPEDTAVYYCAAVRRLLQGRTMYYWGQGTQVTVSS	high polyreactivity
QVQLVESGGGLVQAGGSLRLSCAASGRTFAGYAMGWYRQPPGKERELVAAITSSGGTTYYADSVKGRFTISRDNAKNTVYLQMNILKPEDTAVYSCAADLTWIYRWQTYNYDYWGQGTQVTVSS	high polyreactivity
QVQLVESGGGLVQAGGSLRLSCAASGFIFARNAMGRYRQDTGKERELVAVISTRGRTYYADSVKGRFTISRDNSKNTVYLQMNSLKPEDTAVYYCNADKVIGYDYWGQCTQVTVSS	high polyreactivity
QVQLVESVGGLVLAGASLRLSCAASGSTYAPNAMGWYRQAPGKERELVAVITSGDSTYYAVSVKGRFTISRDNAKNTVYLQMNSLKPEDTAVYYCASETYGTPGYYYWGQGTQVTVSS	low polyreactivity
QVQLVESGGGLVQAGGSLRLSCAASGSIFEYYAMGWYRQAPGKERELVASITSGGRTYYADSVKGRFTISRDNAKNTVYLQMNSLKPEDTAVYYCAAAYYNWGYTFYWGQGTQVTVSS	high polyreactivity
QVQLVESGGGLVQAGGSLRLSCAASGSTFGYYAMGWYRQAPGKERELVAVITRSGDRTYYADSVKGRFTISRDNAKNTVYLQMNSLKPEDTGVYYCAARATSAGGVAEYYWGQGTQVTVSS	high polyreactivity
QVQLVESGGGLVQAGGSLRLSCAASGRTFVSNAMGWYRQAPGKERELVAAITQSGGSTYADSVKGRFTISRDNAKNTVYLQLNSLKPEDTAVYYCNSEHAFVGTYYERHDYWGQGTQVTVSS	low polyreactivity
QVQLVESGGGLVQAGGSLRLSCAASGRIFVCYAMGLYRQAPGKERELVAAISSSCGSTYYADSVKGRFTISRDKAKNTVYLQMNSLKPEDTAVYYCNTHQRSRMDYWVQGTQVTVSS	low polyreactivity
QVQLVESGGGLVQEGGSLRLSCADSGFTSCDNDMGWYRQAPGKERELVAAISRGGSTNYADSVKGRFTISRDNAKNTFYLQMNSLKPEDSEVYYCATAAVTPVWYDYWGKGTQVTVSS	low polyreactivity
QVQLVESGGGLVQAGGSLRLSCAASGITFDVYAMGWYRQAPGKERELVAAISSVGGTYYADSVKGRFTISRDNAKNTVYFQMNSLKPEDTAVYYCNTDGYVGSIRSGLYIYEYWGQGTQVTVSS	low polyreactivity
QVQLVESGGGLVQAGGSLRLSCAASGSIFPYYTMGGYRQAPGKERELVAVISSGGSTNYAVSVKGRFTISRDNAKNTVYLQMNSLKPEDTAVYYCNARRYWLRYDYWGLGTQVTVSS	low polyreactivity
QVQLVESGGGLVKAGGSLRLSCAASGSIFKGNVMGWYRQAPGKERELVAGINWSSGRTYYADSVKGRFTISRDNAKNTVYLQMNSLNPEDTAVYYCNAPQYFSYSWPYPREYDYWGQGTQVNVSS	high polyreactivity

Sequence	polyreactivity (PSR sort gate)
QVQLVESGGGLVQAGGSLRLSCAASGSTFNANTMGWYRQAPGKEREFVAAISWTGASTYYADSVKGRFTISRDNAKNTVYLHMNSLKPEDTAVDYCNADYTVADGPYRDGYDYWGQGTQVTVSS	low polyreactivity
QVQLVESGGGLVQAGGSLRLSCAASGGTFTHNAMGWYRQAPGKDWELVAAISRSGGSTSYADSVKGRFTISRYNAKNTVYLQMNSLKPEDTAVYYCADRISRQRSYSRDYWGQGNQVTVSS	high polyreactivity
QVQLQESVGGLVQAGGTLRLSCAGRGNIYTHQLYMGSYRQAPGKEIDFVAAINFGASPYYADSVKGRNTISRDNAKNTVYLLMNSLKPEDTAVYYCAADSAFYDEYQEDYWGQGTQVTLSS	low polyreactivity
QVQLVESGGGLVQAGGSLRVSCAPSGGTFGYYTMGWYRQAPGTERELVAAISSGGGTDYADSVKGRFTISRDNAKNTVYLQMNSLKPEDTAVYYCNAKWLELHYVFLPSYTMDYWGHGTQVTVSS	low polyreactivity
QVQLVESGGGVVQAGGTLRLSCAASGSTFPKYAMGWYRQAPGKERELVAAISLSGVRTYYADSVKGRFTISRDNAKNTVYLQMTSLKPEDTAVYYCNAVFDRYPYRYDYWGQGTQVTVSS	high polyreactivity
QVQLVESGGGLVQAGGSLRLSCAASGSTFDIYPMGWYRQAPGKERELVAAISWSGGRTYYADSVKGRFTISRDNAKNTVYLQMNSLKPEDTAVYYCAAVNKSGTYVEYDYWGQGTQVTVSS	low polyreactivity
QVQLVESWGGLGQAVGSLRLSCAASGRTFLIYAMGWYIQAPGTERELVASITGRGGRTSYADSVKGRFTISRDNAQNTVYLQMNSLKPEDTAVYYCAARNPYTSTYYYWGQGTQVTVSS	high polyreactivity
QVQLVESGGGLVQAGGSLRLSCAASGRIFTAYAMVWYRPAPGKERELVAAISSGDSTYYADSVKGRFTISRDNAKNTVYLQKNSLKPEETAVYSCATGVYPDFEYDSWGQGTQVTVSS	low polyreactivity
QVQLVESGGGLVQAGGSLRLSCDASGRTSRWNAMGCYRQAPGKERELVAAISSGSSTTYADSVKGRFTISRDNAKNTVYLQMNSLKPEATAVYYCNAKSGSRFVYRRYYTYNSWGQGTQVTVSS	high polyreactivity
QVQLVESGGGLVQAGGSLRLTCAASGFIFNHNAMGWYRQAPGKERELVAAISSGGRTYYADSVKGRFTISRDNAKNTVYLQMNSLKPEDTAVYYCAKDTKYSSQYGKYGYWGQGTQVTVSS	low polyreactivity
EVQLVESGGGLVQPGGSLRLSCAASGYIYRRYRMGRYRQAPGKGREFVAAISGGSSTNYADSVKGRFTNSRDNSKNTVYLQMNSLRAEDTAVYYCAAYKIDSDPRVYWGQGTQVTVSS	low polyreactivity
QVQLVESGGGLVQAGGSLRLSFAASGSIFYRNSMGWYRQAPGKERELVAAISWSGASTYYADSVKGRFTISRDNAKNTVYLQMNSLKPEETAVYYCYAGKYAYLWLKLFDPKLDYWGQGTQVTVSS	low polyreactivity
QVQLEESAGGLVQAGGSLRLSCAASGLTFNYYAMGWYRQAPGKERELVAAITGRGGSTYYADSVKGRFTISRDNAKNTVYLQMNSLKPEDTAVYYCAADGGTRGYDYWGQGTQVTVSS	low polyreactivity
QVPLVESGGGLVQAGVSLRLSCAASGSIFYLYAMGWYRQAPGKERELVAAISRSGASTYYADSVKGRFTISRDNAKNTVYLQMNSQKPEDTAVYYCAAYKIWGRVRYDYWGQGTQVTVSS	low polyreactivity
QVQLVESGGGLVQAGGSLRLSCAASGSTFAAYVMGWYRQAPGKERELVAAISTSGGGTYYADSVKGRFTISRDTAKNTVYLQMNSLKPEDTAVYYCAADYGSGSVSYDYWGQGTQVTVSS	low polyreactivity
QVQLVESGGGLVQAGGSLRLSCAASGSTFANNAMGWYRQAPGKERELVAAISWSGGSTYYADSVKGRFTISRDNAKNTVYLQMNSLKPEDTAVYYCAADSPRYGGYGYWGQGTKVTVSS	low polyreactivity
QVQLVESGGGLVQAGGSLRLSCAASGRTFGPYAMGWYRQAPGKERELVAVISKSGTRTYYADSVKGRFTISRDNAKNTVYLQMNSLKPEETAVYYCAARSPYSYRYDYWGQGTQVTVSS	high polyreactivity
QVQLVESGGGLVQAGGSLRLSCAASGSIYYRNAMGSYRQAPGKERELVAAISSTGSTYYADSVKGRFTISRDNAKNTVYLQMNSMKPEDTAVYYCAARQGYRSYRRYDSWGQGTQVTVSS	high polyreactivity
QVQLVESGGRLVQAGGSLRLSCAASGRTFWFNDMGWYRQAPGKVRQLVAAISDTDGSTYYADSVKGRFTISRDNAKNSVYLQMNSLKPVDTAVYYCAPEAYYGYLYAYDYWGQGTQVTVSS	low polyreactivity
QVQLVESGGGLVQAGGSLRLSCAASGFIFAYNAMGWYRQAPGKERELVASIRTRAGSTYYADSVKGRFTISRDNAKNTDYLQMNSLKPADTAVYYSAARPFPRRYDYWGQGTQVTVSS	low polyreactivity
